Key:
[1] = target: T1, PVRL4_864 (94-957, 864 bps, r864p) recombinant fragment of Nectin-4 (PVRL4_HUMAN) (human, UniProt Q96NY8 32-319); assay: ELISA titration of purified scFv on PVRL4 864
T1 construct: His-tagged and purified on Ni-sepharose from a 6M urea lysate; also called his-PVRL4_864
T1 sequence (looked up): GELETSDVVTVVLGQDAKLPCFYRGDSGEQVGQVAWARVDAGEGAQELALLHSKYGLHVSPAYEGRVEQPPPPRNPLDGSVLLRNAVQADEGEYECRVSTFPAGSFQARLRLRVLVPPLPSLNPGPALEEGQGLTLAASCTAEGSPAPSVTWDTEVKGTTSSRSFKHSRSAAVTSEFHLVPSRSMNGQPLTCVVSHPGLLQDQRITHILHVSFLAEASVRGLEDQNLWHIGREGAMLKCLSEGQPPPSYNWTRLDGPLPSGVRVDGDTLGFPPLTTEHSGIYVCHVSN

[2] = target: T1, PVRL4_864 (94-957, 864 bps, r864p) …; assay: competitive ELISA of purified scFv on r864p; competitive ELISA, purified scFv S21 on r864p
[3] = target: T1, PVRL4_864 (94-957, 864 bps, r864p) …; assay: competitive ELISA of purified scFv on r864p

B1: NECTIN4-scFv-S21 (scFv, V domains shown)
VH: AVTLDESGGGLQTPGGALSLVCKASGFTFSSYAMMWVRQAPGKGLEYIAGIRSDGRYTYYGAAVKGRATISRDNGQSTVRLQLNNLRAEDTGTYYCAKSGVTDTSSSTYSSASNIDAWGHGTEVIVSS
VL: ALTQPSSVSANLGGTVKITCSGGSGSYGWYQQKSPGSAPVTLIYANTNRPSDIPSRFSGSKSGSTSTLTITGVQAEDVAVYYCGSRDSSYVGIFGAGTTLTVL
notes: Chicken-derived scFv from a pComb3X phage library, tested as purified scFv; also called anti-PVRL4 scFv S21; NECTIN4-scFv-521
With B1 as the binder, how does the “concentration of scFv at OD450 nm value of 1” value (“concentration of scFv” below) [1] read?
Its value is 0.02 µg/mL.

What about the Kd [2] of the same binder?
Its Kd is 1410 nM.

And the 50% concentration [3]?
Its 50% concentration is 52.5 µg/mL.

B2: NECTIN4-scFv-S6 (scFv, V domains shown)
VH: TVTLDESGGGLQTPGGGLSLVCKGSGFTFSSNGMAWVRQAPGKGLEFVAGVNAAGSWTGYGAAVKGRATISRDNGQSTVRLQLNDLRAEDTGTYYCAKTADDWYGADDIDAWGHGTEVIVSS
VL: ALTQPSSVSTNLGETVEITCSGSSGYGYGWYQQKSPGSAPVTVIYSNDKRPSDIPSRFSGSASGSTATLTITGVRAEDEAVYLCGGYDSSASYVGIFGAGTTLTVL
notes: Chicken-derived scFv, tested as purified scFv
For B2, which “concentration of scFv” value [1] is on record?
Its value is 0.31 µg/mL.

And the 50% concentration [3]?
The 50% concentration was 34.9 µg/mL.

What about the Kd [3] of the same binder?
The Kd was 942 nM.

B3: NECTIN4-scFv-L1 (scFv, V domains shown)
VH: AVTLDESGGGLQAPGGGLSLVCRASGFTFSSHGMFWVRQAPGKGLEFVAGISDAGSWTGYGAAVKGRATISRDSGQSTVRLQLNNLRAEDTGIYYCAKSAGDWYGADDIDAWGHGTEVIVSS
VL: ALTQPSSVSANPGETVKITCSGGSSNYYGWYQQKSPGSAPVTLIYNNNKRPSDIPSRFSASKSGSTHTLTITGVRAEDEAVYFCGGWDKSAGIFGAGTTLTVL
notes: as for B2
With B3 as the binder, how does the “concentration of scFv” value [1] read?
The value was 0.04 µg/mL.

And the 50% concentration [3]?
The 50% concentration was 34.7 µg/mL.

And the Kd [3]?
Its Kd is 939 nM.
